From IntAct's records for PubMed 20168298

Target: T1, pkd2_human PKD2 (UniProt Q13563)
T1 sequence: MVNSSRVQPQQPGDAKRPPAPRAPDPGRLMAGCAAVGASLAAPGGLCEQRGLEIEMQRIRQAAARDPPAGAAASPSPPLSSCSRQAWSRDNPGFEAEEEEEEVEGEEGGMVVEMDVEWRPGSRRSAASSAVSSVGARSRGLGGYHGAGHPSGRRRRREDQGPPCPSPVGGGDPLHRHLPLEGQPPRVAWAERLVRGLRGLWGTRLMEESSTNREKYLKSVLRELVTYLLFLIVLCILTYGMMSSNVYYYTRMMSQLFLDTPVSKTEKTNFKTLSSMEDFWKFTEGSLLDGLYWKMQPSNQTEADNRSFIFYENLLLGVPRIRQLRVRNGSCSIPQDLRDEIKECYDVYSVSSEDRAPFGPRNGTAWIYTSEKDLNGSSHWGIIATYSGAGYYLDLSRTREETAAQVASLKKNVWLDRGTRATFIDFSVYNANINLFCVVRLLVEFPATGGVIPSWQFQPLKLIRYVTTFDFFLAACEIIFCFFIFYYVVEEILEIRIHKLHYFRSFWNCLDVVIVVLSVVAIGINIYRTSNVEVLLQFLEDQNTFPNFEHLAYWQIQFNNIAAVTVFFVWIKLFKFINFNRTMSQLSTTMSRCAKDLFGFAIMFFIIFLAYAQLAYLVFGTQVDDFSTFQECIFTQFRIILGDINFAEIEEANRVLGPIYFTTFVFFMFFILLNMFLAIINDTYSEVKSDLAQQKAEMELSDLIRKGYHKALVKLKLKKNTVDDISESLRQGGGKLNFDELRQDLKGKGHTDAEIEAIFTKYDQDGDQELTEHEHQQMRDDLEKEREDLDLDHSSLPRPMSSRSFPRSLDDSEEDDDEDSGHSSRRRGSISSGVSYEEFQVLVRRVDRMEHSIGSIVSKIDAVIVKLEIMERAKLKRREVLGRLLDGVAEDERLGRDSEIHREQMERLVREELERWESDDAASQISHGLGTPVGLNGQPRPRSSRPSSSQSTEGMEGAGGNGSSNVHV

“Polycystin-1 (Homo sapiens) (from UniProt P98161) Q4225P” was tested, and the “effect of a mutation on the interaction” value was “disrupting interaction”.
